This passage reports Specific Activity (u/mg) of CPB-C (Hippuryl-L-Arg substrate) after folding of ProCPB-C and trypsin treatment and Specific Activity (u/mg) of CPB (Hippuryl-L-Arg substrate) after folding of ProCPB and trypsin treatment results from US5948668.

Test [1] concerns the target recombinant rat procarboxypeptidase B with the Cys290->Ser mutation, expressed by plasmid pProCPB-C (rat).
Test [2] deals with recombinant rat procarboxypeptidase B expressed by plasmid pλProCPB (rat).

As for trypsin (enzyme), the Specific Activity (u/mg) of CPB-C (Hippuryl-L-Arg substrate) after folding of ProCPB-C and trypsin treatment in test [1] was 20.9 u/mg. Further, in test [2], the Specific Activity (u/mg) of CPB (Hippuryl-L-Arg substrate) after folding of ProCPB and trypsin treatment was found to be 42.9 u/mg.
